Results as given in patent US20190307868A1 (published 2019).

Target: HLA-B08:01 (human)
Test: peptide-MHC-I complex dissociation half-life, 125I-b2m, 37 C
Description: Briefly, synthetic genes encoding biotinylated MHC-I heavy and light chains are expressed in E. coli and purified from inclusion bodies using standard methods. The light chain (β2m) is radio-labeled with iodine (¹²⁵I), and combined with the purified MHC-I heavy chain and peptide of interest at 18° C. to initiate pMHC-I complex formation. These reactions are carried out in streptavidin coated microplates to bind th biotinylated MHC-I heavy chains to the surface and allow measurement of radiolabeled light chain to monitor complex formation. Dissociation is initiated by addition of higher concentrations of unlabeled light-chain and incubation at 37° C. Stability is defined as the length of time in hours it takes for half of the complexes to dissociate, as measured by scintillation counts

Stability (T1/2 (h)): 0 h
B1: QVYRRKHQEL (EML4:ALK) (peptide)
peptide: QVYRRKHQEL
